As a reminder, the Kd is the free concentration of one partner at which half of the binding sites on the other are occupied at equilibrium, for simple one-to-one binding. Read a low Kd as a tighter complex. In general, stoichiometry N refers to a count of units in the complex or per binding partner.

Data set [1] deals with T1, C-terminally His-tagged RavA (E. coli, UniProt P31473 1-498).
T1 construct: RavA, MoxR AAA+ ATPase, E. coli K-12 MG1655; It cites earlier work for RavA being a hexamer with ADP or ATP and partly monomeric without nucleotide; also called apo-RavA; not shown: His tag, C-terminal, kept
T1 sequence (P31473 whole entry): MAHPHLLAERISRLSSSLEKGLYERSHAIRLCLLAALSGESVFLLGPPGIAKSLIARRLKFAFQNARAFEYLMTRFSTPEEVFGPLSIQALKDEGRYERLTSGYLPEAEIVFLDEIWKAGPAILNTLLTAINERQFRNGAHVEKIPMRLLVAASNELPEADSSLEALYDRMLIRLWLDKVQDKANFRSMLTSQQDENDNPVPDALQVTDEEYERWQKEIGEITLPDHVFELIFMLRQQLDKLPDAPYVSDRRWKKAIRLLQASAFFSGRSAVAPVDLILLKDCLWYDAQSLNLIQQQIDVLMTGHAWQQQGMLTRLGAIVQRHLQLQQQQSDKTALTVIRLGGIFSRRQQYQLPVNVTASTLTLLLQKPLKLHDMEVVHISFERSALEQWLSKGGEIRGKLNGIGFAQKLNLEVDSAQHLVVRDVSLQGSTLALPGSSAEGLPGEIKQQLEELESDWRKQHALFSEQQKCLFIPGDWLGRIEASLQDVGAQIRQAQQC
The data set is described as follows: BLI; biotinylated ViaA construct immobilised on streptavidin biosensors, RavA in solution with 1 mM ADP (pre-incubated 10 min); HBS kinetics buffer, 293 K; 1:1 model. Conditions: both partners purified. For orientation: In BLI a coated tip is dipped into the sample, and binding shifts an interference pattern.

Data set [2] deals with T1, C-terminally His-tagged RavA. In words: BLI; biotinylated ViaA construct immobilised on streptavidin biosensors, ligand in solution, no nucleotide added; HBS kinetics buffer (25 mM HEPES pH 7.5, 300 mM NaCl, 10 mM MgCl2, 10 % glycerol, 0.1% BSA, 0.02% Tween-20), 293 K, Octet RED96; 1:1 model. To be noted: both partners purified.
Data set [3] concerns the molecule itself. In words: SAXS; AviTag-ViaA-His at 3 mg/mL, 25 mM HEPES pH 7.5, 300 mM NaCl, 10 mM MgCl2, 10 % glycerol, 20 °C; MW by SAXSMoW and ScÅtter.
Data set [4] concerns the molecule itself. In words: SEC-MALS; Superdex 200 increase 10/300 GL, 4 °C, 25 mM HEPES pH 7.5, 300 mM NaCl, 10 mM MgCl2, 10 % glycerol; AviTag-ViaA-His 80 µL at 3 mg/mL, His-NTV-AviTag 80 µL at 2 mg/mL.
Data set [5] addresses T1, C-terminally His-tagged RavA. The data set is described as follows: BLI; Supplementary Fig. 1: biotinylated His-NTV-AviTag or ViaA immobilised on streptavidin biosensors, RavA or RavAΔLARA in solution; HBS kinetics buffer, 293 K; the methods say 1 mM ADP was added with RavA or RavAΔLARA. Conditions: both partners purified.

B1: His-ViaA-AviTag (natural protein, E. coli, UniProt P0ADN0 1-483, looked up)
chain: MLTLDTLNVMLAVSEEGLIEEMIIALLASPQLAVFFEKFPRLKAAITDDVPRWREALRSRLKDARVPPELTEEVMCYQQSQLLSTPQFIVQLPQILDLLHRLNSPWAEQARQLVDANSTITSALHTLFLQRWRLSLIVQATTLNQQLLEEEREQLLSEVQERMTLSGQLEPILADNNTAAGRLWDMSAGQLKRGDYQLIVKYGEFLNEQPELKRLAEQLGRSREAKSIPRNDAQMETFRTMVREPATVPEQVDGLQQSDDILRLLPPELATLGITELEYEFYRRLVEKQLLTYRLHGESWREKVIERPVVHKDYDEQPRGPFIVCVDTSGSMGGFNEQCAKAFCLALMRIALAENRRCYIMLFSTEIVRYELSGPQGIEQAIRFLSQQFRGGTDLASCFRAIMERLQSREWFDADAVVISDFIAQRLPDDVTSKVKELQRVHQHRFHAVAMSAHGKPGIMRIFDHIWRFDTGMRSRLLRRWRR
modifications: biotinylated for the BLI binding studies (50 μM D-biotin added to the LB medium during expression)
notes: ViaA, E. coli, residues 1-483, cloned in the p11-Toronto1 vector; also called C-terminally AviTagged ViaA; source: E. coli BL21 (DE3), purified (NiNTA IMAC, desalting, SEC); not shown: His6, N-terminal, kept
As for B1, the Kd was about 2.2 µM in data set [1] and 11 µM in data set [2].

B2: AviTag-ViaA-His (natural protein, E. coli, UniProt P0ADN0 1-483, looked up)
chain: MLTLDTLNVMLAVSEEGLIEEMIIALLASPQLAVFFEKFPRLKAAITDDVPRWREALRSRLKDARVPPELTEEVMCYQQSQLLSTPQFIVQLPQILDLLHRLNSPWAEQARQLVDANSTITSALHTLFLQRWRLSLIVQATTLNQQLLEEEREQLLSEVQERMTLSGQLEPILADNNTAAGRLWDMSAGQLKRGDYQLIVKYGEFLNEQPELKRLAEQLGRSREAKSIPRNDAQMETFRTMVREPATVPEQVDGLQQSDDILRLLPPELATLGITELEYEFYRRLVEKQLLTYRLHGESWREKVIERPVVHKDYDEQPRGPFIVCVDTSGSMGGFNEQCAKAFCLALMRIALAENRRCYIMLFSTEIVRYELSGPQGIEQAIRFLSQQFRGGTDLASCFRAIMERLQSREWFDADAVVISDFIAQRLPDDVTSKVKELQRVHQHRFHAVAMSAHGKPGIMRIFDHIWRFDTGMRSRLLRRWRR
modifications: biotinylated for the BLI binding studies (50 μM D-biotin added to the LB medium during expression)
notes: ViaA, E. coli K-12 MG1655, VWA domain protein, residues 1-483 (NTV 1-319, CTV/VWA domain 320-483), cloned in pET22b; Dimer by SEC-MALLS and SAXS; Theoretical MW of the construct is 60.4 kDa; also called AVI-ViaA-HIS; N-terminally AviTagged ViaA; source: E. coli BL21 (DE3), purified (NiNTA IMAC, desalting, SEC); not shown: AviTag, N-terminal, kept; His tag, C-terminal, kept
With B2, the “stoichiometry N” value in data set [3] was 2; in data set [4] it was about 2. For the same molecule, the values for the Kd in data set [1] and in data set [2] were about 2.2 µM and 18.9 µM, respectively.

B3: His-NTV-AviTag (domain or fragment, E. coli, UniProt P0ADN0 1-319, looked up)
chain: MLTLDTLNVMLAVSEEGLIEEMIIALLASPQLAVFFEKFPRLKAAITDDVPRWREALRSRLKDARVPPELTEEVMCYQQSQLLSTPQFIVQLPQILDLLHRLNSPWAEQARQLVDANSTITSALHTLFLQRWRLSLIVQATTLNQQLLEEEREQLLSEVQERMTLSGQLEPILADNNTAAGRLWDMSAGQLKRGDYQLIVKYGEFLNEQPELKRLAEQLGRSREAKSIPRNDAQMETFRTMVREPATVPEQVDGLQQSDDILRLLPPELATLGITELEYEFYRRLVEKQLLTYRLHGESWREKVIERPVVHKDYDEQPR
modifications: biotinylated for the BLI binding studies (50 μM D-biotin added to the LB medium during expression)
notes: ViaA, E. coli, N-terminal domain (NTV), residues 1-319; also called N-Terminal domain of ViaA; source: E. coli, expressed and purified as the ViaA constructs (NiNTA IMAC, desalting, SEC)
On to B3, for which, in data set [5], the binding result is “binds”.
